# The supplement of paper PMC10065799, “High-throughput profiling of sequence recognition by tyrosine kinases and SH2 domains using bacterial peptide display” (eLife, 2023)
# Target: Hck (UniProt P08631)
# Assay: phosphorylation enrichment, bacterial display (enrichment ratio); higher = better substrate or ligand; peptides without Tyr show the background
# 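Further: 11-residue human phosphosite peptides and single-mutation variants displayed on the E. coli surface, counted by deep sequencing, each peptide's frequency after selection divided by its frequency in the unselected input library; frequency after pTyr selection over input frequency; kinase dosed for 20-30% of maximal phosphorylation in three min.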
# Hck, sequence (P08631 whole entry, looked up): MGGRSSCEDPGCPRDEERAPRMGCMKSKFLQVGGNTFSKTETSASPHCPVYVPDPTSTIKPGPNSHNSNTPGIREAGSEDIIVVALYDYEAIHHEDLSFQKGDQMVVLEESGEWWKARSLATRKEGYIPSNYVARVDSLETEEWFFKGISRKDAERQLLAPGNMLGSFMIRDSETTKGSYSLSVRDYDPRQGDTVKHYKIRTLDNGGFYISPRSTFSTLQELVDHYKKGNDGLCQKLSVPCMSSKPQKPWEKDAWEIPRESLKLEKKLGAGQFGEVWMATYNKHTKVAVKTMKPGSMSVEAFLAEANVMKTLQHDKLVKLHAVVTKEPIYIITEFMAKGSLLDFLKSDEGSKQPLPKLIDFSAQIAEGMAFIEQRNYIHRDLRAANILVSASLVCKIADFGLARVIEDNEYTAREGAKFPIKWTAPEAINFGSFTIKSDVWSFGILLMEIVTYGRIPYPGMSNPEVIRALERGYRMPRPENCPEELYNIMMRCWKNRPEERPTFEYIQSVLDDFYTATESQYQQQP
row,Sequence,phosphorylation enrichment
1,SFVMVYEGNAR [INSR_Y1038_G1035V],0.747
2,ASNFNYFYHRE [KCNA1_Y413_V408A],0.428
3,SVVVPYEPREV [TP53_Y220_P223R],0.453
4,SMGMKYLEEKN [ZAP70_Y451],0.398
5,FFRDGYMPRQF [GSS_Y270_YF],0.455
6,FVHDNYVIRRT [CPS1_Y1450],0.489
7,PPLMLYNPTTY [EGFR_Y270],1.01
8,TYGVVYRAKDK [CDK11B_Y453],9.58
9,WPLKWYAPECI [ZAP70_Y506],0.405
10,PQQLWYTHKKK [UBTF_Y207_E210K],0.821
11,TRVMEYISCLD [CLTCL1_Y1043_R1046C],0.647
12,VEDQFYCVDCF [FHL1_Y208_YF],0.926
13,EVDETYVPKKF [ALB_Y521_E525K],0.446
14,KDHRDYKFQPR [SOX9_Y172_P170R_YF],0.421
15,EVVGRYSLHNA [MLH1_Y183_V185L],0.411
16,GNKENYGLPQP [BUB1_Y538],0.342
17,GGQDVYGDFGG [Probound],5.41

row,Sequence,phosphorylation enrichment
1,SKEPFYVRCIK [MYO1D_Y586_YF],0.434
2,ADKSAYLMGLN [MYH7_Y386],0.524
3,FSDQVYRQRRK [TH_Y230],0.493
4,QMVGKYASSYM [AVPR2_Y124_M123K],0.379
5,TAPYNYSYIFK [RAB14_Y8],1.14
6,RALLNYIASKY [GSTA3_Y74_I71L],0.553
7,DVSVVYSEVKT [FCRL4_Y493],5.21
8,PLDGEYFTLPI [TP53_Y327_Q331P],15.7
9,MSRDVYSTDCY [NTRK2_Y702_Y706C],0.972
10,FGGTVYHSPVS [PRC1_Y511],0.851
11,IEEGTYGVAYR [CDK11B_Y449_V452A],5.91
12,KEDSVYGSQSV [NFKB2_Y868_A867V],0.984
13,FGSIMYEFVGK [SLC18A1_Y251_V249I],5.05
14,ADCRYYTFPQM [GAMT_Y223_A224T],3.29
15,ETRWNYHFEVV [GCNT3_Y267_K266N],0.439
16,FFIMMYTGSSV [DNAJC13_Y1131_N1135S],0.438

# Target: Fyn (UniProt P06241)
# Assay: as above
# Fyn, sequence (P06241 whole entry, looked up): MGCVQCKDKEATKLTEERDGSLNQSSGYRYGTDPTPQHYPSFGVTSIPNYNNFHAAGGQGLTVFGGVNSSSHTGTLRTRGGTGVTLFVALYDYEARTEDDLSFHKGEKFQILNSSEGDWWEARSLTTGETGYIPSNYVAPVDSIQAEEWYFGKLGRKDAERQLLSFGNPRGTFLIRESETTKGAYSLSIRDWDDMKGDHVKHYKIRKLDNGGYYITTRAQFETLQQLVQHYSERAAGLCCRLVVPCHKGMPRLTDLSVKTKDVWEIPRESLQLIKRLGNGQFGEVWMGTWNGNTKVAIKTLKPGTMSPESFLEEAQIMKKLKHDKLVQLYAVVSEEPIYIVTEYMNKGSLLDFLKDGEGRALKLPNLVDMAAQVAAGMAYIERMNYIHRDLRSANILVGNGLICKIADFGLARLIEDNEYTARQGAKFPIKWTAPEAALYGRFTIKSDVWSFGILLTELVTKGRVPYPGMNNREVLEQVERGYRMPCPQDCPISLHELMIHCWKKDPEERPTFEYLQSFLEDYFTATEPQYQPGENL
row,Sequence,phosphorylation enrichment
1,SFVMVYEGNAR [INSR_Y1038_G1035V],0.634
2,ASNFNYFYHRE [KCNA1_Y413_V408A],0.504
3,SVVVPYEPREV [TP53_Y220_P223R],0.473
4,SMGMKYLEEKN [ZAP70_Y451],0.7
5,FFRDGYMPRQF [GSS_Y270_YF],0.393
6,FVHDNYVIRRT [CPS1_Y1450],0.446
7,PPLMLYNPTTY [EGFR_Y270],0.633
8,TYGVVYRAKDK [CDK11B_Y453],11.6
9,WPLKWYAPECI [ZAP70_Y506],0.565
10,PQQLWYTHKKK [UBTF_Y207_E210K],0.52
11,TRVMEYISCLD [CLTCL1_Y1043_R1046C],0.521
12,VEDQFYCVDCF [FHL1_Y208_YF],1.44
13,EVDETYVPKKF [ALB_Y521_E525K],0.454
14,KDHRDYKFQPR [SOX9_Y172_P170R_YF],0.49
15,EVVGRYSLHNA [MLH1_Y183_V185L],0.382
16,GNKENYGLPQP [BUB1_Y538],0.321
17,GGQDVYGDFGG [Probound],8.36

row,Sequence,phosphorylation enrichment
1,SKEPFYVRCIK [MYO1D_Y586_YF],0.339
2,ADKSAYLMGLN [MYH7_Y386],0.543
3,FSDQVYRQRRK [TH_Y230],0.615
4,QMVGKYASSYM [AVPR2_Y124_M123K],0.529
5,TAPYNYSYIFK [RAB14_Y8],0.354
6,RALLNYIASKY [GSTA3_Y74_I71L],0.678
7,DVSVVYSEVKT [FCRL4_Y493],4.99
8,PLDGEYFTLPI [TP53_Y327_Q331P],9.28
9,MSRDVYSTDCY [NTRK2_Y702_Y706C],2.1
10,FGGTVYHSPVS [PRC1_Y511],0.588
11,IEEGTYGVAYR [CDK11B_Y449_V452A],7.54
12,KEDSVYGSQSV [NFKB2_Y868_A867V],1.43
13,FGSIMYEFVGK [SLC18A1_Y251_V249I],1.09
14,ADCRYYTFPQM [GAMT_Y223_A224T],3.97
15,ETRWNYHFEVV [GCNT3_Y267_K266N],0.449
16,FFIMMYTGSSV [DNAJC13_Y1131_N1135S],0.316

# Target: Fes (UniProt P07332)
# Assay: as above
# Fes, sequence (P07332 whole entry, looked up): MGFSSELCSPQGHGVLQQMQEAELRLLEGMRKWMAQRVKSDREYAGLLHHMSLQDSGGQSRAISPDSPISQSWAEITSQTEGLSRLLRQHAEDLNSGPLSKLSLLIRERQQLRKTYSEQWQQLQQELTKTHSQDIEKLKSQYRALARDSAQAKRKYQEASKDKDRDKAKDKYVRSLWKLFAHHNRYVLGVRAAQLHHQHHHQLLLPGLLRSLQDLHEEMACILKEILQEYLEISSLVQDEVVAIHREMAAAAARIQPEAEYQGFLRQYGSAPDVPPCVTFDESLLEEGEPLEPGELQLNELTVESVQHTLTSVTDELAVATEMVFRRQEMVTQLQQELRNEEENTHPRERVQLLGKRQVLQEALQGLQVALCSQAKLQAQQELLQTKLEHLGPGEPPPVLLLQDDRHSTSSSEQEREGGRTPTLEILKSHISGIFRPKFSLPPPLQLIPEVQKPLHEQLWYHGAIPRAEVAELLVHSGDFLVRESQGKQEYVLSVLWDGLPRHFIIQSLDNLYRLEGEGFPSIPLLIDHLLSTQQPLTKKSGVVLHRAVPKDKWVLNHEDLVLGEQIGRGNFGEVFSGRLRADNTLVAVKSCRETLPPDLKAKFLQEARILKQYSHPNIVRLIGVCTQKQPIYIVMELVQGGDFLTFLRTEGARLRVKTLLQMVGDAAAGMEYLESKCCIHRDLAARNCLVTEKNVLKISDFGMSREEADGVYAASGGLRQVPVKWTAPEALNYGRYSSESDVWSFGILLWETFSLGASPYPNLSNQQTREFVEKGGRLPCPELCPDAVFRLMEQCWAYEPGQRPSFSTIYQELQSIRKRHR
row,Sequence,phosphorylation enrichment
1,SFVMVYEGNAR [INSR_Y1038_G1035V],1.25
2,ASNFNYFYHRE [KCNA1_Y413_V408A],0.964
3,SVVVPYEPREV [TP53_Y220_P223R],0.998
4,SMGMKYLEEKN [ZAP70_Y451],0.879
5,FFRDGYMPRQF [GSS_Y270_YF],0.82
6,FVHDNYVIRRT [CPS1_Y1450],0.739
7,PPLMLYNPTTY [EGFR_Y270],10.3
8,TYGVVYRAKDK [CDK11B_Y453],1.16
9,WPLKWYAPECI [ZAP70_Y506],1.39
10,PQQLWYTHKKK [UBTF_Y207_E210K],1.14
11,TRVMEYISCLD [CLTCL1_Y1043_R1046C],1.18
12,VEDQFYCVDCF [FHL1_Y208_YF],1.29
13,EVDETYVPKKF [ALB_Y521_E525K],0.952
14,KDHRDYKFQPR [SOX9_Y172_P170R_YF],0.586
15,EVVGRYSLHNA [MLH1_Y183_V185L],0.671
16,GNKENYGLPQP [BUB1_Y538],0.69
17,GGQDVYGDFGG [Probound],0.837

row,Sequence,phosphorylation enrichment
1,SKEPFYVRCIK [MYO1D_Y586_YF],1.18
2,ADKSAYLMGLN [MYH7_Y386],0.671
3,FSDQVYRQRRK [TH_Y230],0.787
4,QMVGKYASSYM [AVPR2_Y124_M123K],0.736
5,TAPYNYSYIFK [RAB14_Y8],0.735
6,RALLNYIASKY [GSTA3_Y74_I71L],0.959
7,DVSVVYSEVKT [FCRL4_Y493],1.05
8,PLDGEYFTLPI [TP53_Y327_Q331P],2.87
9,MSRDVYSTDCY [NTRK2_Y702_Y706C],1.14
10,FGGTVYHSPVS [PRC1_Y511],0.687
11,IEEGTYGVAYR [CDK11B_Y449_V452A],1
12,KEDSVYGSQSV [NFKB2_Y868_A867V],0.946
13,FGSIMYEFVGK [SLC18A1_Y251_V249I],0.983
14,ADCRYYTFPQM [GAMT_Y223_A224T],0.998
15,ETRWNYHFEVV [GCNT3_Y267_K266N],1.65
16,FFIMMYTGSSV [DNAJC13_Y1131_N1135S],1.07

# Target: Jak2 (UniProt O60674)
# Assay: as above
# Jak2, sequence (O60674 whole entry, looked up): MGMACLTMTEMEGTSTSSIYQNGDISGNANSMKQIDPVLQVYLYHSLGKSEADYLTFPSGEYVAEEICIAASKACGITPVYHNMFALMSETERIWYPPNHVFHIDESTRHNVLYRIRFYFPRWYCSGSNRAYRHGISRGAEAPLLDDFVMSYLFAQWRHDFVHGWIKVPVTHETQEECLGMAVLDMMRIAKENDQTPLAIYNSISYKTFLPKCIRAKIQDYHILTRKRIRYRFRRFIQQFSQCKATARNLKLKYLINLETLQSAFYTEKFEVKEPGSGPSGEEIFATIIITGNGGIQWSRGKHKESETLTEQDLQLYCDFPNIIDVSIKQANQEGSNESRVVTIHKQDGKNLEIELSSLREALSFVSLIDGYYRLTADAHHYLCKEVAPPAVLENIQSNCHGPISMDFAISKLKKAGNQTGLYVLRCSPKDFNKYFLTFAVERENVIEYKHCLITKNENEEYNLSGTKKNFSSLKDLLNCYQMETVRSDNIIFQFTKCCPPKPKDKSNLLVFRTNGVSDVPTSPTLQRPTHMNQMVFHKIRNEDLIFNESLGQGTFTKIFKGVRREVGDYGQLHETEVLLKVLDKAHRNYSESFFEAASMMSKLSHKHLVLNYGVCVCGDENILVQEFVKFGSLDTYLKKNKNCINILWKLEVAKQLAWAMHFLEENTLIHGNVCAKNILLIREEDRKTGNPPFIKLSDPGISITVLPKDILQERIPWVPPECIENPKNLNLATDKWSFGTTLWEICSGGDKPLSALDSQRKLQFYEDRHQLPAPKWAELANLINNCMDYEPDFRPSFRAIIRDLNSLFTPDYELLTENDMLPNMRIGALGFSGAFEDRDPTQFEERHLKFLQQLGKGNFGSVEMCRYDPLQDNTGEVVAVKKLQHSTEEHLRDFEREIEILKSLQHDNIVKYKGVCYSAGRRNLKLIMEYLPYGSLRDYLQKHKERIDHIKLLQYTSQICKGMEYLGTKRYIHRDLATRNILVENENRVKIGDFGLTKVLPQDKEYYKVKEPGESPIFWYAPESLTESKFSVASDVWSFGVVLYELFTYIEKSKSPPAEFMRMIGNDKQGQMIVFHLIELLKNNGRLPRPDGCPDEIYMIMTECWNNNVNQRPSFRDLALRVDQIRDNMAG
row,Sequence,phosphorylation enrichment
1,SFVMVYEGNAR [INSR_Y1038_G1035V],1.22
2,ASNFNYFYHRE [KCNA1_Y413_V408A],0.732
3,SVVVPYEPREV [TP53_Y220_P223R],0.746
4,SMGMKYLEEKN [ZAP70_Y451],0.727
5,FFRDGYMPRQF [GSS_Y270_YF],0.592
6,FVHDNYVIRRT [CPS1_Y1450],0.714
7,PPLMLYNPTTY [EGFR_Y270],0.625
8,TYGVVYRAKDK [CDK11B_Y453],0.525
9,WPLKWYAPECI [ZAP70_Y506],1.03
10,PQQLWYTHKKK [UBTF_Y207_E210K],1.07
11,TRVMEYISCLD [CLTCL1_Y1043_R1046C],0.995
12,VEDQFYCVDCF [FHL1_Y208_YF],1.35
13,EVDETYVPKKF [ALB_Y521_E525K],1.01
14,KDHRDYKFQPR [SOX9_Y172_P170R_YF],0.51
15,EVVGRYSLHNA [MLH1_Y183_V185L],0.445
16,GNKENYGLPQP [BUB1_Y538],0.532
17,GGQDVYGDFGG [Probound],0.905

row,Sequence,phosphorylation enrichment
1,SKEPFYVRCIK [MYO1D_Y586_YF],0.921
2,ADKSAYLMGLN [MYH7_Y386],0.67
3,FSDQVYRQRRK [TH_Y230],0.658
4,QMVGKYASSYM [AVPR2_Y124_M123K],0.717
5,TAPYNYSYIFK [RAB14_Y8],0.561
6,RALLNYIASKY [GSTA3_Y74_I71L],0.8
7,DVSVVYSEVKT [FCRL4_Y493],1.07
8,PLDGEYFTLPI [TP53_Y327_Q331P],12.1
9,MSRDVYSTDCY [NTRK2_Y702_Y706C],1.06
10,FGGTVYHSPVS [PRC1_Y511],0.555
11,IEEGTYGVAYR [CDK11B_Y449_V452A],0.928
12,KEDSVYGSQSV [NFKB2_Y868_A867V],0.794
13,FGSIMYEFVGK [SLC18A1_Y251_V249I],0.703
14,ADCRYYTFPQM [GAMT_Y223_A224T],4.44
15,ETRWNYHFEVV [GCNT3_Y267_K266N],1.23
16,FFIMMYTGSSV [DNAJC13_Y1131_N1135S],0.824
